{"source": "patent US10428327B2", "about": "“Compositions and methods for enhancing homologous recombination” (LIFE TECHNOLOGIES CORPORATION, priority 2016, dated 2019)", "molecules": {"B1": {"name": "32-3′: short dsDNA donor with 32-base 3′ overhangs, EmGFP, SEQ ID 100 and 101 (nucleic acid)", "chain 1": "AGAATTCTTGTCGTCATCGTCTTTGTAGTCAGGTGGTCACGAGGGTGGGCCAGGGCACGGGC", "chain 2": "GACTACAAAGACGATGACGACAAGAATTCTACGGCGTGCAGTGCTTCGCCCGCTACCCCGAC", "modifications": "DNA, backbone and methylation of C not given here; further chemistry not fully specified"}, "B2": {"name": "32-5′: short dsDNA donor with 32-base 5′ overhangs, EmGFP, SEQ ID 98 and 99 (nucleic acid)", "chain 1": "GCCCGTGCCCTGGCCCACCCTCGTGACCACCTGACTACAAAGACGATGACGACAAGAATTCTA", "chain 2": "GTCGGGGTAGCGGGCGAAGCACTGCACGCCGTAGAATTCTTGTCGTCATCGTCTTTGTAGTC", "modifications": "DNA, backbone and methylation of C not given here; further chemistry not fully specified"}, "B3": {"name": "PS90: phosphorothioate 90-mer ssDNA, BFP point mutation, SEQ ID 47 (nucleic acid)", "DNA": "GCAAGCTGCCCGTGCCCTGGCCCACCCTCGTGACCACCCTGACCTACGGCGTGCAGTGCTTCAGCCGCTACCCCGACCACATGAAGCAGC", "modifications": "5' phosphate, modified ends, chemistry not fully specified"}, "B4": {"name": "PS100: phosphorothioate 100-mer ssDNA, BFP point mutation, SEQ ID 45 (nucleic acid)", "DNA": "{P}-dA*dC*dCdGdGdCdAdAdGdCdTdGdCdCdCdGdTdGdCdCdCdTdGdGdCdCdCdAdCdCdCdTdCdTdGdAdCdCdAdCdCdCdTdGdAdCdCdTdAdCdGdGdCdGdTdGdCdAdGdTdGdCdTdTdCdAdGdCdCdGdCdTdAdCdCdCdCdGdAdCdCdAdCdAdTdGdAdAdGdCdAdGdCdAdCdGdA*dC*dT"}, "B5": {"name": "70: unmodified 70-mer ssDNA, BFP point mutation, SEQ ID 50 (nucleic acid)", "DNA": "CCCGTGCCCTGGCCCACCCTCGTGACCACCCTGACCTACGGCGTGCAGTGCTTCAGCCGCTACCCCGACC", "modifications": "DNA, backbone not given here"}, "B6": {"name": "PS70: phosphorothioate 70-mer ssDNA, BFP point mutation, SEQ ID 51 (nucleic acid)", "DNA": "{P}-dC*dC*dCdGdTdGdCdCdCdTdGdGdCdCdCdAdCdCdCdTdCdGdTdGdAdCdCdAdCdCdCdTdGdAdCdCdTdAdCdGdGdCdGdTdGdCdAdGdTdGdCdTdTdCdAdGdCdCdGdCdTdAdCdCdCdCdGdA*dC*dC"}, "B7": {"name": "80: unmodified 80-mer ssDNA, BFP point mutation, SEQ ID 48 (nucleic acid)", "DNA": "GCTGCCCGTGCCCTGGCCCACCCTCGTGACCACCCTGACCTACGGCGTGCAGTGCTTCAGCCGCTACCCCGACCACATGA", "modifications": "DNA, backbone not given here"}, "B8": {"name": "90: unmodified 90-mer ssDNA, BFP point mutation, SEQ ID 46 (nucleic acid)", "DNA": "B3 DNA", "modifications": "unmodified DNA"}, "B9": {"name": "45-3′: dsDNA donor with 45-base 3′ overhangs, annealed SEQ ID 95 and 96 (nucleic acid)", "chain 1": "GACTACAAAGACGATGACGACAAGAATTCTTACGGCGTGCAGTGCTTCAGCCGCTACCCCGACCACATGAAGCAGCAC", "chain 2": "AAGAATTCTTGTCGTCATCGTCTTTGTAGTCGGTCAGGGTGGTCACGAGGGTGGGCCAGGGCACGGGCAGCTTGCCGG", "modifications": "chemistry not fully specified"}}, "assay_type_in_all_cases": "cell-based", "key": {"[1]": {"system": "HEK293 cells stably expressing eBFP", "assay": "HDR assay, conversion of eBFP to GFP by flow cytometry", "conditions": "oligonucleotide length and modification, sequential delivery, 1 nt substitution, 48 hours", "source_text": "To generate a HEK293FT stable cell line expressing eBFP, an eBFP ORF was synthesized by GENEART® custom DNA synthesis (Thermo Fisher Scientific) and then cloned into pDONAR221 vector. Using GATEWAY® recombination technology (Thermo Fisher Scientific), the eBFP ORF was transferred to pLenti6.2-DEST Gateway Vector and then verified by sequencing. Lentivirus was generated using VIRAPOWER® kit as described in the manual. To generate stable cell line, HEK293FT cells were transduced with 0.1 MOI of Lentivirus expressing eBFP. Three days post transduction cells were selected on 5 μg/mL Blasticidine antibiotics for 2 weeks. Cells expressing eBFP were then collected and diluted to […] in complete medium and plated into 96 well plates for single cell clone. After 2 weeks clones were isolated and verified for eBFP expression by flow cytometer. In a reporter assay using a stable eBFP-expressing HEK293 cell line, the substitution of C to T in eBFP gene converts His67 to Tyr67, generating a GFP variant (Table 5).\n(§1) To create homologous recombination (HR) assays, a series of gRNAs flanking the insertion site within the EmGFP gene were designed and synthesized (Table 4). Each individual gRNA was combined with GENEART™ […]™ Cas9 Nuclease to form the Cas9 protein/gRNA ribonucleoprotein complexes (Cas9 RNPs). The Cas9 RNPs were then used to transfect cells via NEON® electroporation. The genomic cleavage efficiency was then evaluated using the GENEART® Genomic Cleavage Detection kit at 48 hours post transfection. The gRNAs with highest editing efficiencies and also in close proximity to the insertion site were selected for the subsequent HR assays. For donor design of a single-stranded oligonucleotide, typically the mutation site was positioned at the center flanked by 30 to 50 nucleotides on each side. For asymmetric donor design, 30 nucleotides were placed on either the left or right arm and then 50 or 67 nucleotides on the right or left arm respectively, in both PAM and non-PAM strands. For design of a dsDNA oligonucleotide with single-stranded overhangs, the insertion element was overlapped in the center flanked by various lengths of ssDNA oligonucleotide on each side. By annealing two single-stranded oligonucleotides at 95° C. for 3 minutes, dsDNA donor molecules with either a 5′ protrusion or a 3′ protrusion were generated. To measure homologous recombination efficiency, the donor DNA was either co-transfected with Cas9 RNPs or delivered sequentially into cells via electroporation. At 48 hours post transfection, the gain of EmGFP function in reporter cell lines was determined by flow cytometric analysis with an Attune® NxT Acoustic Focusing Cytometer (Thermo Fisher Scientific). Alternatively, the genomic loci were PCR-amplified using the corresponding primers and then subjected to GENEART® Genomic Cleavage Detection assay or restriction digestion. The resulting PCR products were also subjected to TOPO cloning. Typically, 96 colonies were randomly picked for sequencing. The sequencing data were analyzed using VECTOR NTI ADVANCE® 11.5 software (Thermo Fisher Scientific).\nFor each homologous recombination assay, 1.5 μg of Cas9 protein and 360 ng of gRNA were added to Resuspension Buffer R to a final volume of 7 μl, but limiting the total volume of Cas9 protein plus gRNA to less than 1 μl. The gRNA could be diluted in Buffer R if the concentration was too high. Upon mixing, the sample was incubated at room temperature for 5 to 10 minutes to form Cas9 RNPs. Meanwhile, […]™ HEK293 cells expressing either eBFP or disrupted EmGFP were detached from culture flask with TRYPLE™ Express Enzyme and then counted. Aliquots of 1×10^6 cells were washed once with DPBS without Ca^2+ and Mg^2+ and the cell pellets were resuspended in 50 μl of Resuspension Buffer R. A 5 μl aliquot of cell suspension was mixed with 7 μl of Cas9 RNPs. […] The electroporated cells were transferred to 300 μl of […]. […]"}, "[2]": {"system": "EmGFP gene in GRIPTITE HEK293 cells", "assay": "Sequencing analysis of FLAG tag/EcoRI insertion with +5 gRNA", "conditions": "sequential delivery, 48 hours", "protocol": "In order to understand the polarity of dsDNA donor with single stranded overhangs, we inserted a FLAG epitope tag along with an EcoRI site into a separate locus where the +5 gRNA was targeting the bottom strand of EmGFP gene (see Table 21). The Cas9 RNPs were first delivered into […]™ HEK293 cells, followed by the delivery of ssDNA donor, or short dsDNA donors with 32-base single stranded overhangs at either 5′ or 3′ end. Samples in the absence of gRNA served as controls. At 48 hours post transfection, the genomic loci were amplified by PCR. The resulting PCR fragments were subjected to restriction digestion with EcoRI (data not shown) or subjected to sequencing analysis. The integration efficiency of FLAG epitope tag along with an EcoRI was approximately 34% using dsDNA donor with 3′ overhangs and 20% using ssDNA donor."}, "[3]": {"system": "eBFP locus in HEK293 cells expressing eBFP", "assay": "EcoRI restriction digestion of PCR-amplified eBFP locus (FLAG tag/EcoRI insertion)", "conditions": "FIG. 11B, length of 3′ overhang, 48 hours", "source_text": "FIG. 11. Insertion of a FLAG tag along with an EcoRI site using dsDNA donor with single-stranded overhangs. (A) Various donor DNA molecules containing a 30-base FLAG tag along with an EcoRI site were designed and synthesized, including single-stranded DNA donor (ssDNA), blunt-end dsDNA donor (blunt), dsDNA donor with 5′ overhang (5′), dsDNA donor with 3′ overhang (3′). The length of overhangs varied from 6 nucleotides (6), 15 nucleotides (15) to 30 nucleotides (30). The 3′ and 5′ ends of the oligonucleotides harbored two consecutive phosphorothioate-modified bases (Table 4). The short dsDNA donors with and without overhangs were prepared by annealing two short DNA oligonucleotides. […] At 48 hours post transfection, the eBFP locus was PCR-amplified. The resulting PCR fragments were analyzed by the genomic cleavage and detection assays to determine the percentage of Indel or subjected to restriction digestion with EcoRI to determine the percentage of digestion. (B) Length of 3′ overhang. […] Alternatively, a dsDNA donor with 30-base 3′ overhang but without phosphorothioate modification (30-3′n) was used. The percentage of digestion with EcoRI was determined at 48 hours post transfection. (C) Dose effect. […] The eBFP loci were PCR-amplified. The resulting PCR fragments were analyzed by EcoRI digest. (D) Sequencing verification. The PCR fragments were cloned into E. coli and 192 clones were randomly picked for sequencing. The relative percentage of wild type (wt), NHEJ, and HDR clones derived from either ssDNA donor (ssDNA) or dsDNA with 3′ overhangs (3′ overhang) was plotted. The white rectangles represented the population of clones that contained the insert but with a point mutation. Examples of edited clones were shown in (E) (not representing the actual percentages of NHEJ and HDR). The underlined sequences represented the FLAG tag along with an RI site. FIG. 11 discloses SEQ ID NOs: 15-24, respectively, from top to bottom.\nas §1, with “The sequencing data were analyzed using VECTOR NTI ADVANCE® 11.5 software (Thermo Fisher Scientific).” left out"}}, "note": "Oligonucleotides are written 5' to 3', each unit as a sugar letter and its base; * is a phosphorothioate linkage, no mark a phosphodiester; rarer units and linkages stand in square brackets, end groups in braces. Plain capitals give the bases only. d = 2'-deoxy (DNA); {P} = phosphate", "data": [{"molecule": "50: unmodified 50-mer ssDNA, BFP point mutation, SEQ ID 54 (DNA CCCACCCTCGTGACCACCCTGACCTACGGCGTGCAGTGCTTCAGCCGCTA; DNA, backbone not given here) [compound 50]", "values": [{"measurement": "Avg (% GFP+ cells)", "setting": "[1]", "value": 14.4, "unit": "%"}]}, {"molecule": "B1", "values": [{"measurement": "Relative % HDR (integration of FLAG epitope tag along with EcoRI)", "setting": "[2]", "value": 34.2, "unit": "%"}, {"measurement": "Relative % NHEJ", "setting": "[2]", "value": 54.6, "unit": "%"}, {"measurement": "Relative % wt", "setting": "[2]", "value": 11.1, "unit": "%"}, {"measurement": "Relative % HDR (integration of FLAG epitope tag along with EcoRI)", "setting": "[2]; listed as dsDNA donor with 3′ overhangs", "value": "approximately 34%"}]}, {"molecule": "B2", "values": [{"measurement": "Relative % HDR (integration of FLAG epitope tag along with EcoRI)", "setting": "[2]", "value": 0.0, "unit": "%"}, {"measurement": "Relative % NHEJ", "setting": "[2]", "value": 78.0, "unit": "%"}, {"measurement": "Relative % wt", "setting": "[2]", "value": 22.0, "unit": "%"}, {"measurement": "Relative % HDR (integration of FLAG epitope tag along with EcoRI)", "setting": "[2]; listed as dsDNA donor with 5′ overhangs", "value": "barely detectable integration product"}]}, {"molecule": "B3", "values": [{"measurement": "Avg (% GFP+ cells)", "setting": "[1]", "value": 38.8, "unit": "%"}]}, {"molecule": "B4", "values": [{"measurement": "Avg (% GFP+ cells)", "setting": "[1]", "value": 38.4, "unit": "%"}]}, {"molecule": "B5", "values": [{"measurement": "Avg (% GFP+ cells)", "setting": "[1]", "value": 34.7, "unit": "%"}]}, {"molecule": "B6", "values": [{"measurement": "Avg (% GFP+ cells)", "setting": "[1]", "value": 39.2, "unit": "%"}]}, {"molecule": "B7", "values": [{"measurement": "Avg (% GFP+ cells)", "setting": "[1]", "value": 38.4, "unit": "%"}]}, {"molecule": "B8", "values": [{"measurement": "Avg (% GFP+ cells)", "setting": "[1]", "value": 32.8, "unit": "%"}]}, {"molecule": "B9", "values": [{"measurement": "Avg (% digestion)", "setting": "[3]", "value": 37.0, "unit": "%"}]}]}
